Measurements published in the Human Domainome abundance scans (Beltran et al. 2025).
± gives the uncertainty stated by the source.

B1: Nuclear receptor subfamily 1 group D member 2, residues 103 to 171; numbered along this chain, Q14995 (parent)
chain: CKVCGDVASGFHYGVHACEGCKGFFRRSIQQNIQYKKCLKNENCSIMRMNRNRCQQCRFKKCLSVGMSR
B2: Protein S100-G, residues 1 to 79; numbered along this chain, P02633 (parent)
chain: MSAKKSPEELKGIFEKYAAKEGDPNQLSKEELKLLLQTEFPSLLKGPSTLDELFEELDKNGDGEVSFEEFQVLVKKISQ

Variants of: B1
Assay: abundance fitness (aPCA) (normalised: wild type 0, dead -1); higher = more abundant; growth selection in yeast, the domain comes from the species named
Conditions: Homo sapiens

CKVCGDVASGFHYGVHACEGCKGFFRRSIQQNIQYKKCLKNENCSIMRMNRNRCQQCRFKKCLSVGMTR [S68T] and CKVCGDVASGFHYGVHACEGCKGFFRRSIQQNIQYKKCLKNENCSIMRMNRNRCQQCRFKKCLSVGMKR [S68K] are within error of each other in abundance fitness: -0.018 ± 0.13 for the first, -0.01 ± 0.32 for the second.

CKVCGDVASGFHYGVHACEGCKGFFRRSIQQNIQYKKCLKNENCSIMRMNRNRCQQCRFKKCLSVGMQR [S68Q] and CKVCGDVASGFHYGVHACEGCKGFFRRSIQQNIQYKKCLKNENCSIMRMNRNRCQQCRFKKCLSVGMDR [S68D] are within error of each other in abundance fitness: 0.314 ± 0.15 for the first, -0.049 ± 0.22 for the second.

CKVCGDVASGFHYGVHACEGCKGFFRRSIQQNIQYKKCLKNENCSIMRMNRNRCQQCRFKKCLSVGMPR [S68P] and CKVCGDVASGFHYGVHACEGCKGFFRRSIQQNIQYKKCLKNENCSIMRMNRNRCQQCRFKKCLSVGMFR [S68F] are within error of each other in abundance fitness: -0.768 ± 0.19 for the first, -0.561 ± 0.14 for the second.

CKVCGDVASGFHYGVHACEGCKGFFRRSIQQNIQYKKCLKNENCSIMRMNRNRCQQCRFKKCLSVGMHR [S68H] and CKVCGDVASGFHYGVHACEGCKGFFRRSIQQNIQYKKCLKNENCSIMRMNRNRCQQCRFKKCLSVGMCR [S68C] are within error of each other in abundance fitness: -0.347 ± 0.15 for the first, -0.097 ± 0.15 for the second.

First: CKVCGDVASGFHYGVHACEGCKGFFRRSIQQNIQYKKCLKNENCSIMRMNRNRCQQCRFKKCLSVGMER [S68E]
Second: CKVCGDVASGFHYGVHACEGCKGFFRRSIQQNIQYKKCLKNENCSIMRMNRNRCQQCRFKKCLSVGMLR [S68L]
The abundance fitness of the first is higher: -0.087 ± 0.3 for the first, -0.584 ± 0.18 for the second.

CKVCGDVASGFHYGVHACEGCKGFFRRSIQQNIQYKKCLKNENCSIMRMNRNRCQQCRFKKCLSVGMIR [S68I] and CKVCGDVASGFHYGVHACEGCKGFFRRSIQQNIQYKKCLKNENCSIMRMNRNRCQQCRFKKCLSVGMGR [S68G] are within error of each other in abundance fitness: -0.111 ± 0.27 for the first, -0.125 ± 0.088 for the second.

CKVCGDVASGFHYGVHACEGCKGFFRRSIQQNIQYKKCLKNENCSIMRMNRNRCQQCRFKKCLSVGMAR [S68A] and CKVCGDVASGFHYGVHACEGCKGFFRRSIQQNIQYKKCLKNENCSIMRMNRNRCQQCRFKKCLSVGMNR [S68N] are within error of each other in abundance fitness: 0.029 ± 0.2 for the first, 0.186 ± 0.2 for the second.

Going from CKVCGDVASGFHYGVHACEGCKGFFRRSIQQNIQYKKCLKNENCSIMRMNRNRCQQCRFKKCLSVGMMR [S68M] to CKVCGDVASGFHYGVHACEGCKGFFRRSIQQNIQYKKCLKNENCSIMRMNRNRCQQCRFKKCLSVGMVR [S68V], the abundance fitness falls from -0.023 ± 0.2 to -0.526 ± 0.15.

CKVCGDVASGFHYGVHACEGCKGFFRRSIQQNIQYKKCLKNENCSIMRMNRNRCQQCRFKKCLSVGMRR [S68R] and CKVCGDVASGFHYGVHACEGCKGFFRRSIQQNIQYKKCLKNENCSIMRMNRNRCQQCRFKKCLSVGMSC [R69C] are within error of each other in abundance fitness: -0.354 ± 0.12 for the first, -0.013 ± 0.34 for the second.

CKVCGDVASGFHYGVHACEGCKGFFRRSIQQNIQYKKCLKNENCSIMRMNRNRCQQCRFKKCLSVGMSS [R69S] and CKVCGDVASGFHYGVHACEGCKGFFRRSIQQNIQYKKCLKNENCSIMRMNRNRCQQCRFKKCLSVGMSF [R69F] are within error of each other in abundance fitness: 0.176 ± 0.12 for the first, 0.483 ± 0.36 for the second.

Going from CKVCGDVASGFHYGVHACEGCKGFFRRSIQQNIQYKKCLKNENCSIMRMNRNRCQQCRFKKCLSVGMSD [R69D] to CKVCGDVASGFHYGVHACEGCKGFFRRSIQQNIQYKKCLKNENCSIMRMNRNRCQQCRFKKCLSVGMSA [R69A], the abundance fitness rises from -0.404 ± 0.26 to 0.233 ± 0.088.

CKVCGDVASGFHYGVHACEGCKGFFRRSIQQNIQYKKCLKNENCSIMRMNRNRCQQCRFKKCLSVGMSQ [R69Q] and CKVCGDVASGFHYGVHACEGCKGFFRRSIQQNIQYKKCLKNENCSIMRMNRNRCQQCRFKKCLSVGMSE [R69E] are within error of each other in abundance fitness: 0.07 ± 0.13 for the first, 0.008 ± 0.16 for the second.

CKVCGDVASGFHYGVHACEGCKGFFRRSIQQNIQYKKCLKNENCSIMRMNRNRCQQCRFKKCLSVGMSG [R69G] and CKVCGDVASGFHYGVHACEGCKGFFRRSIQQNIQYKKCLKNENCSIMRMNRNRCQQCRFKKCLSVGMSP [R69P] are within error of each other in abundance fitness: 0.112 ± 0.079 for the first, 0.28 ± 0.12 for the second.

First: CKVCGDVASGFHYGVHACEGCKGFFRRSIQQNIQYKKCLKNENCSIMRMNRNRCQQCRFKKCLSVGMST [R69T]
Second: CKVCGDVASGFHYGVHACEGCKGFFRRSIQQNIQYKKCLKNENCSIMRMNRNRCQQCRFKKCLSVGMSL [R69L]
The abundance fitness of the first is higher: 0.451 ± 0.13 for the first, 0.143 ± 0.087 for the second.

First: CKVCGDVASGFHYGVHACEGCKGFFRRSIQQNIQYKKCLKNENCSIMRMNRNRCQQCRFKKCLSVGMSY [R69Y]
Second: CKVCGDVASGFHYGVHACEGCKGFFRRSIQQNIQYKKCLKNENCSIMRMNRNRCQQCRFKKCLSVGMSV [R69V]
The abundance fitness of the first is lower: -0.083 ± 0.2 for the first, 0.327 ± 0.07 for the second.

CKVCGDVASGFHYGVHACEGCKGFFRRSIQQNIQYKKCLKNENCSIMRMNRNRCQQCRFKKCLSVGMSM [R69M] and CKVCGDVASGFHYGVHACEGCKGFFRRSIQQNIQYKKCLKNENCSIMRMNRNRCQQCRFKKCLSVGMSW [R69W] are within error of each other in abundance fitness: 0.318 ± 0.12 for the first, 0.288 ± 0.17 for the second.

Variants of: B2
Assay: as above
Conditions: Bos taurus

WSAKKSPEELKGIFEKYAAKEGDPNQLSKEELKLLLQTEFPSLLKGPSTLDELFEELDKNGDGEVSFEEFQVLVKKISQ [M1W] and QSAKKSPEELKGIFEKYAAKEGDPNQLSKEELKLLLQTEFPSLLKGPSTLDELFEELDKNGDGEVSFEEFQVLVKKISQ [M1Q] are within error of each other in abundance fitness: -0.667 ± 0.11 for the first, -0.678 ± 0.15 for the second.

First: NSAKKSPEELKGIFEKYAAKEGDPNQLSKEELKLLLQTEFPSLLKGPSTLDELFEELDKNGDGEVSFEEFQVLVKKISQ [M1N]
Second: YSAKKSPEELKGIFEKYAAKEGDPNQLSKEELKLLLQTEFPSLLKGPSTLDELFEELDKNGDGEVSFEEFQVLVKKISQ [M1Y]
The abundance fitness of the first is higher: -0.186 ± 0.13 for the first, -0.501 ± 0.13 for the second.
